Laboratory results as given in publication doi:10.1101/2021.01.14.426634 (bioRxiv, 2021).
Where “and” joins values, the source holds several entries; their conditions need not be identical. Identical values can stand only once. Like-named read-outs stand apart in the source and are kept apart here.

Columns and labels:
[1] = biological target: Danio rerio calcium hemostasis modulator 1 (drCALHM1), full length, purified channel (Danio rerio) (UniProt E7F2J4); experiment: cryo-EM structure
[2] = biological target: Danio rerio calcium hemostasis modulator 1 (drCALHM1), full length, purified channel (Danio rerio) (UniProt E7F2J4); experiment: cryo-EM structure; remark: listed apart in the source
[3] = biological target: Danio rerio calcium hemostasis modulator 1 (drCALHM1), full length, purified channel (Danio rerio) (UniProt E7F2J4); experiment: cryo-EM structure; remark: listed apart in the source
cross-linking [4] = biological target: the molecule itself; experiment: cross-linking
cross-linking [5] = biological target: the molecule itself; experiment: cross-linking; remark: listed apart in the source

Danio rerio calcium hemostasis modulator 1 (drCALHM1), full length, purified channel (from UniProt E7F2J4 1-346) (natural protein)
stoichiometry N [1]: 8 | stoichiometry N [2]: 7 | stoichiometry N [3]: 7 and 8

B1: Homo sapiens CALHM1 with a 2x FLAG tag at the C-terminus, expressed in HEK293T cells (natural protein, H. sapiens, UniProt Q8IU99 1-346, looked up)
chain: MMDKFRMIFQFLQSNQESFMNGICGIMALASAQMYSAFDFNCPCLPGYNAAYSAGILLAPPLVLFLLGLVMNNNVSMLAEEWKRPLGRRAKDPAVLRYMFCSMAQRALIAPVVWVAVTLLDGKCFLCAFCTAVPVSALGNGSLAPGLPAPELARLLARVPCPEIYDGDWLLAREVAVRYLRCISQALGWSFVLLTTLLAFVVRSVRPCFTQAAFLKSKYWSHYIDIERKLFDETCTEHAKAFAKVCIQQFFEAMNHDLELGHTHGTLATAPASAAAPTTPDGAEEEREKLRGITDQGTMNRLLTSWHKCKPPLRLGQEEPPLMGNGWAGGGPRPPRKEVATYFSKV
stoichiometry N (cross-linking [4]): 8 | stoichiometry N (cross-linking [5]): 7
